± gives the standard deviation of the averaged measurements.
Tested on: Sindbis virus TE/5'2J-GFP
Experiment: percent infected (GFP+ in RFP+ ISG-expressing cells); higher = more infection (less antiviral activity)
Description: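 Confirmatory testing of 87 ISGs. Triplicate wells of BHK/HA-Zeo (control) or BHK/NZAP-Zeo (ZAP) cells were transduced with lentiviruses co-expressing a human ISG plus TagRFP, then infected 48 h later with SINV TE/5'2J-GFP (moi 5). The % GFP+ cells among RFP+ cells was measured by flow cytometry at 8 h post infection. Fluc lentivirus served as control. Three independent experiments.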

[1] = experiment: confirmatory screen 1, BHK/HA-Zeo (control)
[2] = experiment: confirmatory screen 1, BHK/NZAP-Zeo (ZAP)
[3] = experiment: confirmatory screen 2, BHK/HA-Zeo (control)
[4] = experiment: confirmatory screen 2, BHK/NZAP-Zeo (ZAP)
[5] = experiment: confirmatory screen 3, BHK/HA-Zeo (control)
[6] = experiment: confirmatory screen 3, BHK/NZAP-Zeo (ZAP)
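Note: Interferon-defective BHK-21 derivatives, ZAP line overexpressing the rat ZAP N-terminal zinc finger domain fused to Zeocin resistance, GFP scored within live singlet TagRFP+ cells.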

Sequence | percent infected [1] [%] | percent infected [2] [%] | percent infected [3] [%] | percent infected [4] [%] | percent infected [5] [%] | percent infected [6] [%]
MALAPERAAPRVLFGEWLLGEISSGCYEGLQWLDEARTCFRVPWKHFARKDLSEADARIFKAWAVARGRWPPSSRGGGPPPEAETAERAGWKTNFRCALRSTRRFVMLRDNSGDPADPHKVYALSRELCWREGPGTDQTEAEAPAAVPPPQGGPPGPFLAHTHAGLQAPGPLPAPAGDKGDLLLQAVQQSCLADHLLTASWGADPVPTKAPGEGQEGLPLTGACAGGPGLPAGELYGWAVETTPSPGPQPAALTTGEAAAPESPHQAEPYLSPSPSACTAVQEPSPGALDVTIMYKGRTVLQKVVGHPSCTFLYGPPDPAVRATDPQQVAFPSPAELPDQKQLRYTEELLRHVAPGLHLELRGPQLWARRMGKCKVYWEVGGPPGSASPSTPACLLPRNCDTPIFDFRVFFQELVEFRARQRRGSPRYTIYLGFGQDLSAGRPKEKSLVLVKLEPWLCRVHLEGTQREGVSSLDSSSLSLCLSSANSLYDDIECFLMELEQPA [IRF7] | 72 ± 5.6 | 7.66 ± 2.9 | 95.59 ± 0.13 | 92 ± 0.75 | 69.3 ± 3.4 | 32.8 ± 18
MASVAVDPQPSVVTRVVNLPLVSSTYDLMSSAYLSTKDQYPYLKSVCEMAENGVKTITSVAMTSALPIIQKLEPQIAVANTYACKGLDRIEERLPILNQPSTQIVANAKGAVTGAKDAVTTTVTGAKDSVASTITGVMDKTKGAVTGSVEKTKSVVSGSINTVLGSRMMQLVSSGVENALTKSELLVEQYLPLTEEELEKEAKKVEGFDLVQKPSYYVRLGSLSTKLHSRAYQQALSRVKEAKQKSQQTISQLHSTVHLIEFARKNVYSANQKIQDAQDKLYLSWVEWKRSIGYDDTDESHCAEHIESRTLAIARNLTQQLQTTCHTLLSNIQGVPQNIQDQAKHMGVMAGDIYSVFRNAASFKEVSDSLLTSSKGQLQKMKESLDDVMDYLVNNTPLNWLVGPFYPQLTESQNAQDQGAEMDKSSQETQRSEHKTH [ADFP] | 91.4 ± 2 | 68 ± 2.8 | 96.84 ± 0.14 | 95.665 ± 0.052 | 88.3 ± 0.9 | 89.1 ± 1.9
MSNGYSTDENFRYLISCFRARVKMYIQVEPVLDYLTFLPAEVKEQIQRTVATSGNMQAVELLLSTLEKGVWHLGWTREFVEALRRTGSPLAARYMNPELTDLPSPSFENAHDEYLQLLNLLQPTLVDKLLVRDVLDKCMEEELLTIEDRNRIAAAENNGNESGVRELLKRIVQKENWFSAFLNVLRQTGNNELVQELTGSDCSESNAEIENLSQVDGPQVEEQLLSTTVQPNLEKEVWGMENNSSESSFADSSVVSESDTSLAEGSVSCLDESLGHNSNMGSDSGTMGSDSDEENVAARASPEPELQLRPYQMEVAQPALEGKNIIICLPTGSGKTRVAVYIAKDHLDKKKKASEPGKVIVLVNKVLLVEQLFRKEFQPFLKKWYRVIGLSGDTQLKISFPEVVKSCDIIISTAQILENSLLNLENGEDAGVQLSDFSLIIIDECHHTNKEAVYNNIMRHYLMQKLKNNRLKKENKPVIPLPQILGLTASPGVGGATKQAKAEEHILKLCANLDAFTIKTVKENLDQLKNQIQEPCKKFAIADATREDPFKEKLLEIMTRIQTYCQMSPMSDFGTQPYEQWAIQMEKKAAKEGNRKERVCAEHLRKYNEALQINDTIRMIDAYTHLETFYNEEKDKKFAVIEDDSDEGGDDEYCDGDEDEDDLKKPLKLDETDRFLMTLFFENNKMLKRLAENPEYENEKLTKLRNTIMEQYTRTEESARGIIFTKTRQSAYALSQWITENEKFAEVGVKAHHLIGAGHSSEFKPMTQNEQKEVISKFRTGKINLLIATTVAEEGLDIKECNIVIRYGLVTNEIAMVQARGRARADESTYVLVAHSGSGVIEHETVNDFREKMMYKAIHCVQNMKPEEYAHKILELQMQSIMEKKMKTKRNIAKHYKNNPSLITFLCKNCSVLACSGEDIHVIEKMHHVNMTPEFKELYIVRENKALQKKCADYQINGEIICKCGQAWGTMMVHKGLDLPCLKIRNFVVVFKNNSTKKQYKKWVELPITFPNLDYSECCLFSDED [IFIH1] | 70.9 ± 2.3 | 14.9 ± 0.81 | 95.18 ± 0.27 | 92.703 ± 0.051 | 85 ± 1.1 | 81 ± 2.6
MAATEISVLSEQFTKIKELELMPEKGLKEEEKDGVCREKDHRSPSELEAERTSGAFQDSVLEEEVELVLAPSEESEKYILTLQTVHFTSEAVELQDMSLLSIQQQEGVQVVVQQPGPGLLWLEEGPRQSLQQCVAISIQQELYSPQEMEVLQFHALEENVMVASEDSKLAVSLAETTGLIKLEEEQEKNQLLAERTKEQLFFVETMSGDERSDEIVLTVSNSNVEEQEDQPTAGQADAEKAKSTKNQRKTKGAKGTFHCDVCMFTSSRMSSFNRHMKTHTSEKPHLCHLCLKTFRTVTLLRNHVNTHTGTRPYKCNDCNMAFVTSGELVRHRRYKHTHEKPFKCSMCKYASVEASKLKRHVRSHTGERPFQCCQCSYASRDTYKLKRHMRTHSGEKPYECHICHTRFTQSGTMKIHILQKHGENVPKYQCPHCATIIARKSDLRVHMRNLHAYSAAELKCRYCSAVFHERYALIQHQKTHKNEKRFKCKHCSYACKQERHMTAHIRTHTGEKPFTCLSCNKCFRQKQLLNAHFRKYHDANFIPTVYKCSKCGKGFSRWINLHRHSEKCGSGEAKSAASGKGRRTRKRKQTILKEATKGQKEAAKGWKEAANGDEAAAEEASTTKGEQFPGEMFPVACRETTARVKEEVDEGVTCEMLLNTMDK [CTCFL] | 95.5 ± 1.9 | 68 ± 7.4 | 97.4 ± 0.23 | 95.98 ± 0.22 | 88.6 ± 1.2 | 86.4 ± 0.91
MRTSYLLLFTLCLLLSEMASGGNFLTGLGHRSDHYNCVSSGGQCLYSACPIFTKIQGTCYRGKAKCCK [DEFB1] | 97.13 ± 0.85 | 84.4 ± 1.1 | 95.11 ± 0.27 | 92.98 ± 0.91 | 91.66 ± 0.67 | 92.239 ± 0.055
MSSAIERKSLDPSEEPVDEVLQIPPSLLTCGGCQQNIGDRYFLKAIDQYWHEDCLSCDLCGCRLGEVGRRLYYKLGRKLCRRDYLRLFGQDGLCASCDKRIRAYEMTMRVKDKVYHLECFKCAACQKHFCVGDRYLLINSDIVCEQDIYEWTKINGMI [LMO2] | 95.7 ± 1.2 | 86.1 ± 1.6 | 95.94 ± 0.44 | 94.18 ± 0.17 | 92.69 ± 0.33 | 92.61 ± 0.82
MASVIPASNRSMRSDRNTYVGKRFVHVKNPYLDLMDEDILYHLDLGTKTHNLPAMFGDVKFVCVGGSPNRMKAFALFMHKELGFEEAEEDIKDICAGTDRYCMYKTGPVLAISHGMGIPSISIMLHELIKLLHHARCCDVTIIRIGTSGGIGIAPGTVVITDIAVDSFFKPRFEQVILDNIVTRSTELDKELSEELFNCSKEIPNFPTLVGHTMCTYDFYEGQGRLDGALCSFSREKKLDYLKRAFKAGVRNIEMESTVFAAMCGLCGLKAAVVCVTLLDRLDCDQINLPHDVLVEYQQRPQLLISNFIRRRLGLCD [UPP2] | 74.9 ± 4.2 | 43.1 ± 2.3 | 89.79 ± 0.72 | 93.4 ± 1.3 | 83.4 ± 1.3 | 88.3 ± 1.5
MKVSAAALAVILIATALCAPASASPYSSDTTPCCFAYIARPLPRAHIKEYFYTSGKCSNPAVVFVTRKNRQVCANPEKKWVREYINSLEMS [CCL5] | 95.946 ± 0.068 | 69.5 ± 4.5 | 94.757 ± 0.09 | 93.5 ± 1.5 | 92.85 ± 0.85 | 93.25 ± 0.49
MSIMDHSPTTGVVTVIVILIAIAALGALILGCWCYLRLQRISQSEDEESIVGDGETKEPFLLVQYSAKGPCVERKAKLMTPNGPEVHG [SNN] | 95.8 ± 1.9 | 86.47 ± 0.82 | 96.15 ± 0.19 | 95.59 ± 0.2 | 93.27 ± 0.64 | 92.87 ± 0.32
